Laboratory results: article PMC7473639, “Functionally distinct roles for T and Tbx6 during mouse development”

Tests used:
Tbx6-DBD (T-domain) [1] = target: T1, Tbx6-DBD (T-domain) (mouse, UniProt P70327 90-277); test: quantitative EMSA; Hill coefficient 2.97; 25 mM HEPES pH 7.4, 75 mM NaCl, 1 mM DTT, 0.25 mM EDTA, 0.1% NP-40, 1 mM MgCl2, 10% glycerol, 10 µg/ml BSA, 0.1 mg/ml poly dI-dC; room temperature, 20 min (1 h); details: protein: recombinant; tags: N-terminal His (pET151/D-TOPO); Methods: removed by TEV; label: 32P 5' end label; blunt (annealed; only one strand given)
T1 sequence: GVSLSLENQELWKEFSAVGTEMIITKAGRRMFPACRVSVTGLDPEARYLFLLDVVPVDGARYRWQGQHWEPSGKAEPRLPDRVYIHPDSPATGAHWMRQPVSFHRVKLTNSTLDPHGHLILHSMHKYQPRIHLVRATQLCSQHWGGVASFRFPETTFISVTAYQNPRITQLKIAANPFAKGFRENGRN

Tbx6-DBD (T-domain) [2] = target: T1, Tbx6-DBD (T-domain); test: quantitative EMSA; Hill coefficient 3.18; 25 mM HEPES pH 7.4, 75 mM NaCl, 1 mM DTT, 0.25 mM EDTA, 0.1% NP-40, 1 mM MgCl2, 10% glycerol, 10 µg/ml BSA, 0.1 mg/ml poly dI-dC; room temperature, 20 min (1 h); details: protein: recombinant; tags: N-terminal His (pET151/D-TOPO); Methods: removed by TEV; label: 32P 5' end label; blunt (annealed; only one strand given)
[3] = target: T2, T-DBD (Brachyury T-domain) (mouse, UniProt P20293 41-224); test: quantitative EMSA; Hill coefficient 14.42; 25 mM HEPES pH 7.4, 75 mM NaCl, 1 mM DTT, 0.25 mM EDTA, 0.1% NP-40, 1 mM MgCl2, 10% glycerol, 10 µg/ml BSA, 0.1 mg/ml poly dI-dC; room temperature, 20 min (1 h); details: protein: recombinant; tags: N-terminal His (pET151/D-TOPO), removed by TEV; chain copies: 2; label: 32P 5' end label; blunt (annealed; only one strand given)
T2 sequence: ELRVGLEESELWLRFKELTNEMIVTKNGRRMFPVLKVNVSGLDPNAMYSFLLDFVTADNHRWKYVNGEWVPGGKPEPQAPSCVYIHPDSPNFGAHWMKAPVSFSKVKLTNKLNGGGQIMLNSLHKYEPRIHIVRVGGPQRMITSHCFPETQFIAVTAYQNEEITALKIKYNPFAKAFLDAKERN

B1: Dll1 BS1 (dsDNA)
DNA 1: TCACTGTAGGTGTTGCTGTCCTGT
DNA 2: ACAGGACAGCAACACCTACAGTGA
Question: B1 was tested. Which Kd (Tbx6-DBD (T-domain) [1]) did it give?
Answer: Its Kd is 1530 nM.

B2: Dll1 BS2 (dsDNA)
DNA 1: TCCCGAGGTGTGATTCTTGGA
DNA 2: TCCAAGAATCACACCTCGGGA
Question: Which Kd (Tbx6-DBD (T-domain) [2]) does the source give for B2 here?
Answer: The Kd was 1300 nM.

Question: And the Kd [3]?
Answer: Its Kd is 13900 nM.
